The results in this text go back to publication PMC4029271, “Oligomer-targeting with a conformational antibody fragment promotes toxicity in Aβ-expressing flies” (Acta Neuropathologica Communications, 2014).

In one assay the target is T1, Aβ(1–40) fibrils (Homo sapiens, UniProt P05067).
T1 construct: β-amyloid peptide Aβ(1–40), the 40 amino acid isoform, cut product of the amyloid precursor protein; numbers count on: the Aβ peptide; Fibrillar assembly state; also called Aβ(1–40) amyloid fibrils; source: fibrils formed at 1 mg/ml in 50 mM sodium borate, pH 9.0, 5 days, room temperature
The experiment in a line: far-Western, overlay or dot blot; spot blot: 1–20 μg of each Aβ species (oligomers/intermediates or fibrils) on nitrocellulose, blocked with 2% BSA in TBST; 4 μg/ml B10AP or KW1AP in TBST for 1 h, room temperature; NBT/BCIP; densitometry. The following applies: both partners purified.

The target in a further assay is T2, Aβ(1–42) fibrils (Homo sapiens, UniProt P05067).
T2 construct: β-amyloid peptide Aβ(1–42), the 42 amino acid isoform, cut product of the amyloid precursor protein; numbers count on: the Aβ peptide; Fibrillar assembly state; also called Aβ(1–42) amyloid fibrils; source: synthetic peptide (Dr. Sven Rothemund, University Leipzig); fibrils formed at 1 mg/ml in 50 mM sodium borate, pH 9.0, 5 days, room temperature
Described as above. The following applies: both partners purified.

The target of a further assay is T3, Aβ(1–40) oligomers (Homo sapiens, UniProt P05067).
T3 construct: β-amyloid peptide Aβ(1–40), the 40 amino acid isoform, cut product of the amyloid precursor protein; numbers count on: the Aβ peptide; Oligomeric assembly state; also called Aβ(1–40) intermediates; Aβ(1-40)-derived oligomers; source: oligomers prepared in 100% HFIP, diluted 10-fold with water, supernatant after 14,000 x g
Described as above. The following applies: both partners purified.

For assay [1], the target named is T4, Aβ(1–40) expressed in Drosophila (KW1;Aβ40 flies) (Homo sapiens (expressed in Drosophila), UniProt P05067).
T4 construct: β-amyloid peptide Aβ(1–40); numbers count on: the Aβ peptide; Assembly state of the peptide in the fly homogenate is not defined; source: transgenic Drosophila melanogaster (Gal4-elav c155 driver, neuronal), in head homogenate of 20-day old flies
Kind of assay: co-IP; head homogenates of 20-day old KW1;Aβ40 flies incubated with blocked protein A magnetic beads without antibody (fly KW1 binds the beads directly); PBS + 0.025% TritonX-100, room temperature; elution with 50 mM glycine pH 2.8; WB with 6E10 (Aβ) and anti-myc (KW1). Conditions: partners not purified.

B1: B10AP (alkaline phosphatase coupled B10 antibody fragment) (VHH)
VHH: EVQLVESGGGLVQPGGSLRLSCTASGYTFSHRYHRWFRQAPGKEREIVAVISQSGMRTYYADSVKGRFTISRDNAKNTVYLQMNSLKPEDTAMYYCAAGTRKNVWTRQHPFDYWGQGTQVTVSS
notes: B10, phage display selected from a fully synthetic library of camelid heavy chain antibody fragments; crystal structure of B10 is PDB 3LN9; The introduction speaks of bivalent B10 in earlier work; also called AP coupled B10
As to B1, the binding result in the assay with Aβ(1–40) fibrils and in the assay with Aβ(1–42) fibrils was “binds” in each case.

B2: KW1AP (alkaline phosphatase coupled KW1 antibody fragment) (VHH)
VHH: EVQLVESGGGSVQPGGSLRLSCTASGYTFSQEFVIWFRQAPGKEREIVSGISLRKGWTYYADSVKGRFTISQDNAKNTVYLQMNNLKPEDTAMYYCAAAPTATHALYFDYWGQGTQVTVSS
notes: KW1, phage display selected from a fully synthetic library of camelid heavy chain antibody fragments; crystal structure of KW1 is PDB 3TPK; The introduction speaks of bivalent KW1 in earlier work; also called AP coupled KW1
In the case of B2, in the assay with Aβ(1–40) oligomers, the binding result is listed as “binds”.

B3: fly KW1 (myc-tagged KW1 antibody fragment expressed in Drosophila neurons) (VHH)
VHH: EVQLVESGGGSVQPGGSLRLSCTASGYTFSQEFVIWFRQAPGKEREIVSGISLRKGWTYYADSVKGRFTISQDNAKNTVYLQMNNLKPEDTAMYYCAAAPTATHALYFDYWGQGTQVTVSS
notes: KW1 as in m1; crystal structure PDB 3TPK; Expressed with an N-terminal secretion signal peptide (SSP) from the Drosophila necrotic gene; Band at ~17 kDa on anti-myc Western blot; source: transgenic Drosophila melanogaster (Gal4-elav c155 driver, neuronal), in head homogenate; not shown: myc, C-terminal, kept
For B3, in assay [1], the binding result is “binds”.
